According to the supplement of paper PMC9732359:
± gives the uncertainty stated by the source.

Experiment: protein stability index of a GFP-peptide fusion (yeast GPS) (PSI 1-4); higher = more stable; sorted into four equal gates, so the index is relative within each strain
Method in brief: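 For each peptide, the protein stability index sums the read frequency in every gate after multiplying it by the gate number. Read frequencies came from plasmids that were PCR-amplified from each gate and Illumina-sequenced, with reads assigned to strains by barcodes. The gates were four equal bins of GFP/Cherry fluorescence ratio applied to mid-log yeast in leucine-free medium carrying a pooled library of tiled 17-residue yeast protein peptides fused downstream of GFP on a Cherry-expressing plasmid.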

IRAHQTELTHHLLPRNE [QCR7]
protein stability index (doa10∆): 2.99 ± 0.1 | protein stability index (pdr5∆): 3.2 ± 0.072 | protein stability index (san1∆): 3.02 ± 0.064 | protein stability index (ubr1∆): 2.92 ± 0.065

YWSDKKADTDTLLYEQI [SNF5]
protein stability index (doa10∆): 2.55 ± 0.079 | protein stability index (pdr5∆): 2.61 ± 0.069 | protein stability index (san1∆): 2.64 ± 0.083 | protein stability index (ubr1∆): 2.3 ± 0.049

VGKTVKQLIMESQEKYM [NSL1]
protein stability index (doa10∆): 3.17 ± 0.097 | protein stability index (pdr5∆): 3.18 ± 0.073 | protein stability index (san1∆): 2.8 ± 0.067 | protein stability index (ubr1∆): 3.34 ± 0.055

PNEFEIQLSTVNRQSPL [RGR1]
protein stability index (doa10∆): 2.19 ± 0.063 | protein stability index (pdr5∆): 2.65 ± 0.057 | protein stability index (san1∆): 2.69 ± 0.054 | protein stability index (ubr1∆): 2.45 ± 0.055

STEEIEYIELEYRDLYT [YMR129W/POM152]
protein stability index (doa10∆): 2.56 ± 0.11 | protein stability index (pdr5∆): 3.04 ± 0.14 | protein stability index (san1∆): 2.94 ± 0.13 | protein stability index (ubr1∆): 2.72 ± 0.05

EALVQAFAFCIPVYCFS [YCG1]
protein stability index (doa10∆): 1.68 ± 0.071 | protein stability index (pdr5∆): 1.83 ± 0.056 | protein stability index (san1∆): 1.73 ± 0.16 | protein stability index (ubr1∆): 1.51 ± 0.064

SVLHSWVQLVQIIVTDG [YJL039C/NUP192]
protein stability index (doa10∆): 1.58 ± 0.049 | protein stability index (pdr5∆): 1.98 ± 0.056 | protein stability index (san1∆): 1.28 ± 0.085 | protein stability index (ubr1∆): 1.54 ± 0.055

TLVAQNLKQANNVAYGK [SMC4]
protein stability index (doa10∆): 2.8 ± 0.1 | protein stability index (pdr5∆): 2.92 ± 0.089 | protein stability index (san1∆): 2.87 ± 0.062 | protein stability index (ubr1∆): 3 ± 0.067

PKDPSNVETYEQILQWV [BRR2]
protein stability index (doa10∆): 2.77 ± 0.079 | protein stability index (pdr5∆): 2.48 ± 0.098 | protein stability index (san1∆): 2.91 ± 0.11 | protein stability index (ubr1∆): 2.88 ± 0.12

YERRFGPYFVGPVVAGI [PUP3]
protein stability index (doa10∆): 3.25 ± 0.22 | protein stability index (pdr5∆): 2.81 ± 0.18 | protein stability index (ubr1∆): 3.11 ± 0.16

APNTLTNILISPLNTTT [YML103C/NUP188]
protein stability index (doa10∆): 2.23 ± 0.062 | protein stability index (pdr5∆): 2.13 ± 0.057 | protein stability index (san1∆): 2.03 ± 0.086 | protein stability index (ubr1∆): 1.82 ± 0.045

DPSGSYFPWKATAIGKG [PRE8]
protein stability index (doa10∆): 2.93 ± 0.1 | protein stability index (pdr5∆): 2.68 ± 0.11 | protein stability index (san1∆): 2.82 ± 0.077 | protein stability index (ubr1∆): 3.13 ± 0.075

KLVLAARIIAAIPNPED [RPS0A]
protein stability index (doa10∆): 1.71 ± 0.074 | protein stability index (pdr5∆): 2.11 ± 0.11 | protein stability index (san1∆): 2.31 ± 0.099 | protein stability index (ubr1∆): 2.5 ± 0.14

TNLYKLKEERAIEPETF [PUP3]
protein stability index (doa10∆): 3.16 ± 0.12 | protein stability index (pdr5∆): 2.97 ± 0.13 | protein stability index (san1∆): 3.45 ± 0.066 | protein stability index (ubr1∆): 3.25 ± 0.097

FSQKEMAFNLLGLLTPE [FAS2]
protein stability index (doa10∆): 2.52 ± 0.077 | protein stability index (pdr5∆): 2.32 ± 0.072 | protein stability index (san1∆): 2.18 ± 0.12 | protein stability index (ubr1∆): 2.42 ± 0.064

RTHFKRMRFPPFDDDEP [PRP8]
protein stability index (doa10∆): 2.65 ± 0.042 | protein stability index (pdr5∆): 3.03 ± 0.047 | protein stability index (san1∆): 2.91 ± 0.044 | protein stability index (ubr1∆): 2.77 ± 0.035

ESAVKYALAAKDRFDID [RPN2]
protein stability index (doa10∆): 3.54 ± 0.27 | protein stability index (pdr5∆): 3.09 ± 0.29 | protein stability index (san1∆): 2.87 ± 0.22 | protein stability index (ubr1∆): 3.45 ± 0.1

KGAATGKGRQSAKAELE [PRE10]
protein stability index (doa10∆): 1.24 ± 0.088 | protein stability index (pdr5∆): 1.38 ± 0.079 | protein stability index (san1∆): 1.45 ± 0.29 | protein stability index (ubr1∆): 1.22 ± 0.064

TQYKAGKASLFAQGKRR [RPL42A]
protein stability index (doa10∆): 3.35 ± 0.089 | protein stability index (pdr5∆): 3.04 ± 0.07 | protein stability index (san1∆): 3.1 ± 0.097 | protein stability index (ubr1∆): 3.14 ± 0.1

KSKAEELTQVPSARQKY [UBP6]
protein stability index (doa10∆): 2.19 ± 0.14 | protein stability index (pdr5∆): 2.81 ± 0.12 | protein stability index (san1∆): 2.38 ± 0.14 | protein stability index (ubr1∆): 2.37 ± 0.16

KDTPFTIYDGEAVAKYI [PRE5]
protein stability index (doa10∆): 2.69 ± 0.073 | protein stability index (pdr5∆): 2.97 ± 0.062 | protein stability index (san1∆): 3.13 ± 0.089 | protein stability index (ubr1∆): 3.12 ± 0.05

SRRWRQRKNIQSLELMI [BRR2]
protein stability index (doa10∆): 1.39 ± 0.096 | protein stability index (pdr5∆): 1.88 ± 0.073 | protein stability index (san1∆): 2.15 ± 0.15 | protein stability index (ubr1∆): 1.29 ± 0.057

FKQKLNELLKCKDDVQL [MTW1]
protein stability index (doa10∆): 2.93 ± 0.054 | protein stability index (pdr5∆): 2.96 ± 0.049 | protein stability index (san1∆): 2.87 ± 0.036 | protein stability index (ubr1∆): 3 ± 0.039

ATNRVDVLDPALLRSGR [RPT5]
protein stability index (doa10∆): 3.13 ± 0.12 | protein stability index (pdr5∆): 2.84 ± 0.11 | protein stability index (san1∆): 3.04 ± 0.085 | protein stability index (ubr1∆): 2.94 ± 0.075

VYLTAVLEYLAAEILEL [HTA1]
protein stability index (doa10∆): 2.47 ± 0.12 | protein stability index (pdr5∆): 2.43 ± 0.1 | protein stability index (san1∆): 2.21 ± 0.09 | protein stability index (ubr1∆): 2.61 ± 0.075

DPEEVEQQVAEEATTEE [RPS0A]
protein stability index (doa10∆): 3.3 ± 0.086 | protein stability index (pdr5∆): 3.33 ± 0.097 | protein stability index (san1∆): 3.1 ± 0.077 | protein stability index (ubr1∆): 3.56 ± 0.077

IIMFVGLQGSGKTTSCT [SRP54]
protein stability index (doa10∆): 2.8 ± 0.067 | protein stability index (pdr5∆): 3.04 ± 0.054 | protein stability index (san1∆): 3.13 ± 0.064 | protein stability index (ubr1∆): 3.13 ± 0.046

IRKIVRKDENQFSYVDS [AAR2]
protein stability index (doa10∆): 3.18 ± 0.12 | protein stability index (pdr5∆): 3.14 ± 0.12 | protein stability index (san1∆): 3.03 ± 0.073 | protein stability index (ubr1∆): 3.12 ± 0.076

NLYMLVTTCVYLACKVE [SSN8]
protein stability index (san1∆): 1.62 ± 0.25

KETAPVIDTLAAGYGKI [RPL28]
protein stability index (doa10∆): 1.96 ± 0.088 | protein stability index (pdr5∆): 2.71 ± 0.12 | protein stability index (san1∆): 2.13 ± 0.21 | protein stability index (ubr1∆): 2.53 ± 0.083

QNEMIDAIAVTKGHGFE [RPL3]
protein stability index (doa10∆): 3.08 ± 0.11 | protein stability index (pdr5∆): 3.21 ± 0.1 | protein stability index (san1∆): 3.35 ± 0.1 | protein stability index (ubr1∆): 3.34 ± 0.076

NGSEKVLIAQERSAGNI [RPB2]
protein stability index (doa10∆): 3.1 ± 0.17 | protein stability index (pdr5∆): 3.44 ± 0.21 | protein stability index (san1∆): 3.12 ± 0.12 | protein stability index (ubr1∆): 3.06 ± 0.061

LDEVDAALDITNVQRIA [SMC1]
protein stability index (doa10∆): 3.16 ± 0.096 | protein stability index (pdr5∆): 3.06 ± 0.098 | protein stability index (san1∆): 3.14 ± 0.1 | protein stability index (ubr1∆): 3.16 ± 0.087

FNDSQAIVCYILFELYK [SRP72]
protein stability index (doa10∆): 1.95 ± 0.056 | protein stability index (pdr5∆): 2.31 ± 0.047 | protein stability index (san1∆): 2.01 ± 0.061 | protein stability index (ubr1∆): 2.36 ± 0.053

QGKSKLIIIAANTPVLR [RPL30]
protein stability index (doa10∆): 2.91 ± 0.093 | protein stability index (pdr5∆): 3.08 ± 0.12 | protein stability index (san1∆): 2.96 ± 0.065 | protein stability index (ubr1∆): 2.99 ± 0.078

NVNSRNQLVEPNRIKLS [SRB5]
protein stability index (doa10∆): 2.29 ± 0.061 | protein stability index (pdr5∆): 2.43 ± 0.052 | protein stability index (san1∆): 2.48 ± 0.059 | protein stability index (ubr1∆): 2.19 ± 0.036

IDRNLKCQTCQEGMNEC [RPO21]
protein stability index (doa10∆): 2.48 ± 0.086 | protein stability index (pdr5∆): 1.38 ± 0.061 | protein stability index (san1∆): 2.56 ± 0.079 | protein stability index (ubr1∆): 2.37 ± 0.079

SKTVKVLKTLIEKFEQV [RPN6]
protein stability index (doa10∆): 2.27 ± 0.2 | protein stability index (pdr5∆): 3.25 ± 0.1 | protein stability index (san1∆): 3.07 ± 0.11 | protein stability index (ubr1∆): 2.83 ± 0.07

IGAAELNENARELEQIK [SNF12]
protein stability index (doa10∆): 3.18 ± 0.081 | protein stability index (pdr5∆): 3.18 ± 0.067 | protein stability index (san1∆): 2.84 ± 0.12 | protein stability index (ubr1∆): 3.33 ± 0.05

NAIRIGELFLNESWKSS [SRP72]
protein stability index (doa10∆): 3.39 ± 0.14 | protein stability index (pdr5∆): 3.21 ± 0.083 | protein stability index (san1∆): 2.62 ± 0.14 | protein stability index (ubr1∆): 3.12 ± 0.062

QITLTFISELCSIEPIA [YML103C/NUP188]
protein stability index (doa10∆): 1.27 ± 0.035 | protein stability index (pdr5∆): 1.46 ± 0.052 | protein stability index (san1∆): 1.48 ± 0.085 | protein stability index (ubr1∆): 1.82 ± 0.055

VDVFAMPQSGTGVSVEA [RPN11]
protein stability index (doa10∆): 3.1 ± 0.1 | protein stability index (pdr5∆): 3.41 ± 0.13 | protein stability index (san1∆): 3.41 ± 0.076 | protein stability index (ubr1∆): 3.05 ± 0.095

IYDFHKMENLMRLIKRV [YJL039C/NUP192]
protein stability index (doa10∆): 2.58 ± 0.097 | protein stability index (pdr5∆): 2.67 ± 0.079 | protein stability index (san1∆): 2.3 ± 0.062 | protein stability index (ubr1∆): 2.57 ± 0.073

AMTIYWDDHTKKPLSMA [CDC53]
protein stability index (doa10∆): 2.87 ± 0.077 | protein stability index (pdr5∆): 2.67 ± 0.091 | protein stability index (san1∆): 2.69 ± 0.048 | protein stability index (ubr1∆): 2.85 ± 0.062

TGSNDRCIGDSDNVSFE [YMR129W/POM152]
protein stability index (doa10∆): 3.19 ± 0.066 | protein stability index (pdr5∆): 2.73 ± 0.068 | protein stability index (san1∆): 2.5 ± 0.077 | protein stability index (ubr1∆): 3.09 ± 0.048

GGTSDMNYLLDNKINEI [CSI1]
protein stability index (doa10∆): 2.85 ± 0.11 | protein stability index (pdr5∆): 2.87 ± 0.087 | protein stability index (san1∆): 3.17 ± 0.059 | protein stability index (ubr1∆): 3.25 ± 0.078

GTKSNEKKDSGSSKPAF [YJL041W/NSP1]
protein stability index (doa10∆): 3.21 ± 0.063 | protein stability index (pdr5∆): 3.45 ± 0.072 | protein stability index (san1∆): 3.42 ± 0.046 | protein stability index (ubr1∆): 3.25 ± 0.069

ALAQQKLLTPQDMEAAK [GAL11]
protein stability index (doa10∆): 3.2 ± 0.12 | protein stability index (pdr5∆): 3.38 ± 0.13 | protein stability index (san1∆): 3.4 ± 0.1 | protein stability index (ubr1∆): 3.32 ± 0.095

NKANIQALIHGLNRHYY [RPN11]
protein stability index (doa10∆): 2.12 ± 0.082 | protein stability index (pdr5∆): 2.52 ± 0.073 | protein stability index (san1∆): 2.21 ± 0.095 | protein stability index (ubr1∆): 2.37 ± 0.073

PTETYSDVGGLDKQIEE [RPT5]
protein stability index (doa10∆): 3.36 ± 0.21 | protein stability index (pdr5∆): 3.35 ± 0.11 | protein stability index (san1∆): 3.12 ± 0.068 | protein stability index (ubr1∆): 3.21 ± 0.13

KLEAEEIPSEDQNEFLL [FAS2]
protein stability index (doa10∆): 2.62 ± 0.13 | protein stability index (pdr5∆): 1.75 ± 0.092 | protein stability index (san1∆): 2.25 ± 0.11 | protein stability index (ubr1∆): 3.51 ± 0.16

LDTQLITLLPSSLKESS [SNF12]
protein stability index (doa10∆): 2.89 ± 0.24

ELSEEKYIVKASSGPRY [RPT4]
protein stability index (doa10∆): 2.66 ± 0.21 | protein stability index (pdr5∆): 2.72 ± 0.17 | protein stability index (san1∆): 3.21 ± 0.098 | protein stability index (ubr1∆): 2.41 ± 0.18
